In patent publication US20260266848A1, “COMPOSITIONS AND METHODS FOR DIAGNOSING AND TREATING DYSTONIA” (Duke University, priority 2023, published 2026):

B1: Ankfy1 (protein, UniProt Q810B6 2-1169, looked up)
Rabankyrin-5: AEEEVAKLEKHLMLLRQEYVKLQKKLAETEKRCTLLAAQANKENSNESFISRLLAIVAGLYEQEQYSDLKIKVGDRHISAHKFVLAARSDSWSLANLSSTEEIDLSDANPEVTMTMLRWIYTDELEFREDDVFLTELMKLANRFQLQLLRERCEKGVMSLVNVRNCIRFYQTAEELNASTLMNYCAEIIASHWDDLRKEDFSSLSAQLLYKMIKSKTEYPLHKAIKVEREDVVFLYLIEMDSQLPGKLNETDHNGDLALDLALSRRLESIATTLVSHKADVDMVDKNGWSLLHKGIQRGDLFASTFLIKNGALVNAATAGAQETPLHLVALYSPKKYSADVMSEMAQIAEALLQAGANPNMQDSKGRTPLHLSIMARNDCVFSQLLQCKQLDLELKDHEGSTALWLAVQYITVSSDQSVNPFEDLPVVNGTSFDENSFAARLIQRGSNTDAPDVMTGNCLLQRAAGAGNEAAALFLATSGAHANHRNKWGETPLHTACRHGLANLTAELLQQGANPNLQTEEALPVPKESPVLMSSADSIYLQTPLHMAIAYNHPDVVSVILEQKANALHATNNLQIIPDFSLKDSRDQTVLGLALWTGMHTIAAQLLGSGASINDTMSDGQTLLHMAIQRQDSKSALFLLEHQADINVRTQDGETALQLAIKHQLPLVVDAICTRGADMSVPDEKGNPPLWLALASNLEDIASTLVRHGCDATCWGPGPSGCLQTLLHRAVDENNESTACFLIRSGCDVNSPRQPGTNGEGEEEARDGQTPLHLAASWGLEETVQCLLEFGANVNAQDAEGRTPVHVAISNQHSVIIQLLISHPNIELSVRDRQGLTPFACAMTYKNNKAAEAILKRESGAAEQVDNKGRNFLHVAVQNSDIESVLFLISVQANVNSRVQDASKLTPLHLAVQAGSEIIVRNLLLAGAKVNELTKHRQTALHLAAQQDLPTICSVLLENGVDFAAVDENGNNALHLAVMHGRLNNIRALLTECTVDAEAFNLRGQSPLHILGQYGKENAAAIFDLFLECMPEYPLDKPDAEGNTVLLLAYMKGNANLCRAIVRSGVRLGVNNNQGVNIFNYQVATKQLLFRLLDMLSKEPPWCDGSNCYECTAKFGVTTRKHHCRHCGRLLCHKCSTKEIPIIKFDLNKPVRVCNICFDVLTLGGVS
B2: Copg2 (protein, UniProt Q9QXK3 1-871, looked up)
Coatomer subunit gamma-2: MIKKFDKKDEESGSGSNPFQHLEKSAVLQEARIFNETPINPRRCLHILTKILYLLNQGEHFGTMEATEAFFAMTRLFQSNDQTLRRMCYLTIKEMATISEDVIIVTSSLTKDMTGKEDVYRGPAIRALCRITDGTMLQAVERYMKQAIVDKVSSVASSALVSSLHMMKISYDVVKRWINEAQEAASSDNIMVQYHALGVLYHLRKNDRLAVSKMLNKFTKSGLKSQFAYCMLIRIASRLLKESEDGHESPLFDFIESCLRNKHEMVIYEAASAIIHLPNCTARELAPAVSVLQLFCSSPKPALRYAAVRTLNKVAMKHPSAVTACNLDLENLITDSNRSIATLAITTLLKTGSESSVDRLMKQISSFVSEISDEFKVVVVQAISALCHKYPRKHSVMMTFLSNMLRDDGGFEYKKAIVDCIISIVEENPESKEAGLAHLCEFIEDCEHTVLATKILHLLGKEGPRTPVPSKYIRFIFNRVVLENEAVRAAAVSALAKFGAQNESLLPSILVLLQRCMMDTDDEVRDRATFYLNVLQQRQMALNATYIFNGLTVSIPGMEKALHQYTLEPSEKPFDMKSIPLAMAPVFEQKSEITLVTPKPEKLAPSRQDIFQEQLAAIPEFMNLGPLFKSSEPVQLTEAETEYFVRCVKHMFTDHIVFQFDCTNTLNDQLLEKVTVQMEPSDSYEVLCCIPAPSLPYNQPGICYTLVRLPDEDPTAVAGTFSCTMKFTVRDCDPNTGVPDEDGYDDEYVLEDLEVTVSDHIQKILKPNFAAAWEEVGDAFEKEETFALSSTKTLEEAVNNIITFLGMQPCERSDKVPENKNSHSLYLAGVYRGGYDLLVRSRLALADGVTMQVTVRSKERTPVDVILASVG
B3: Wars (protein, UniProt P32921 1-481, looked up)
Tryptophan--tRNA ligase, …: MADMPSGESCTSPLELFNSIATQGELVRSLKAGNAPKDEIDSAVKMLLSLKMSYKAAMGEEYKAGCPPGNPTAGRNCDSDATKASEDFVDPWTVRTSSAKGIDYDKLIVQFGSSKIDKELINRIERATGQRPHRFLRRGIFFSHRDMNQILDAYENKKPFYLYTGRGPSSEAMHLGHLVPFIFTKWLQDVFNVPLVIQMSDDEKYLWKDLTLEQAYSYTVENAKDIIACGFDINKTFIFSDLEYMGQSPGFYRNVVKIQKHVTFNQVKGIFGFTDSDCIGKISFPAVQAAPSFSNSFPKIFRDRTDIQCLIPCAIDQDPYFRMTRDVAPRIGHPKPALLHSTFFPALQGAQTKMSASDPNSSIFLTDTAKQIKSKVNKHAFSGGRDTVEEHRQFGGNCEVDVSFMYLTFFLEDDDRLEQIRKDYTSGAMLTGELKKTLIDVLQPLIAEHQARRKAVTEETVKEFMTPRQLSFHFQCFCFDT
B4: Megf10 (protein, UniProt Q6DIB5 26-1147, looked up)
Multiple epidermal growth …: LNLEDPNVCSHWESYSVTVQESYPHPFDQIYYTSCTDILNWFKCTRHRISYRTAYRHGEKTMYRRKSQCCPGFYESRDMCVPHCADKCVHGRCIAPNTCQCEPGWGGTNCSSACDGDHWGPHCSSRCQCKNRALCNPITGACHCAAGYRGWRCEDRCEQGTYGNDCHQRCQCQNGATCDHITGECRCSPGYTGAFCEDLCPPGKHGPHCEQRCPCQNGGVCHHVTGECSCPSGWMGTVCGQPCPEGRFGKNCSQECQCHNGGTCDAATGQCHCSPGYTGERCQDECPVGSYGVRCAEACRCVNGGKCYHVSGTCLCEAGFSGELCEARLCPEGLYGIKCDKRCPCHLDNTHSCHPMSGECGCKPGWSGLYCNETCSPGFYGEACQQICSCQNGADCDSVTGRCACAPGFKGTDCSTPCPLGRYGINCSSRCGCKNDAVCSPVDGSCICKAGWHGVDCSIRCPSGTWGFGCNLTCQCLNGGACNTLDGTCTCAPGWRGAKCEFPCQDGTYGLNCAERCDCSHADGCHPTTGHCRCLPGWSGVHCDSVCAEGRWGPNCSLPCYCKNGASCSPDDGICECAPGFRGTTCQRICSPGFYGHRCSQTCPQCVHSSGPCHHITGLCDCLPGFTGALCNEVCPSGRFGKNCAGVCTCTNNGTCNPIDRSCQCYPGWIGSDCSQPCPPAHWGPNCIHTCNCHNGAFCSAYDGECKCTPGWTGLYCTQRCPLGFYGKDCALICQCQNGADCDHISGQCTCRTGFMGRHCEQKCPAGTYGYGCRQICDCLNNSTCDHITGTCYCSPGWKGARCDQAGVIIVGNLNSLSRTSTALPADSYQIGAIAGIVVLVLVVLFLLALFIIYRHKQKRKESSMPAVTYTPAMRVINADYTIAETLPHSNGGNANSHYFTNPSYHTLSQCATSPHVNNRDRMTIAKSKNNQLFVNLKNVNPGKRGTLVDCTGTLPADWKQGGYLNELGAFGLDRSYMGKSLKDLGKNSEYNSSTCSLSSSENPYATIKDPPALLPKSSECGYVEMKSPARRDSPYAEINNSTPANRNVYEVEPTVSVVQGVFSNSGHVTQDPYDLPKNSHIPCHYDLLPVRDSSSSPKREDGGGSNSTSSNSTSSSSSSSE
B5: Vps26b (protein, UniProt Q8C0E2 1-336, looked up)
Vacuolar protein …: MSFFGFGQSVEVEILLNDAESRKRAEHKTEDGKKEKYFLFYDGETVSGKVSLSLKNPNKRLEHQGIKIEFIGQIELYYDRGNHHEFVSLVKDLARPGEITQSQAFDFEFTHVEKPYESYTGQNVKLRYFLRATISRRLNDVVKEMDIVVHTLSTYPELNSSIKMEVGIEDCLHIEFEYNKSKYHLKDVIVGKIYFLLVRIKIKHMEIDIIKRETTGTGPNVYHENDTIAKYEIMDGAPVRGESIPIRLFLAGYELTPTMRDINKKFSVRYYLNLVLIDEEERRYFKQQEVVLWRKGDIVRKSMSHQAAIASQRFEGTTSLGEVRTPGQLSDNNSRQ
B6: Picalm (protein, UniProt Q7M6Y3 2-660, looked up)
Phosphatidylinositol-binding …: SGQSLTDRITAAQHSVTGSAVSKTVCKATTHEIMGPKKKHLDYLIQCTNEMNVNIPQLADSLFERTTNSSWVVVFKSLITTHHLMVYGNERFIQYLASRNTLFNLSNFLDKSGLQGYDMSTFIRRYSRYLNEKAVSYRQVAFDFTKVKRGADGVMRTMNTEKLLKTVPIIQNQMDALLDFNVNSNELTNGVINAAFMLLFKDAIRLFAAYNEGIINLLEKYFDMKKNQCKEGLDIYKKFLTRMTRISEFLKVAEQVGIDRGDIPDLSQAPSSLLDALEQHLASLEGKKIKDSTAASRATTLSNAVSSLASTGLSLTKVDEREKQAALEEEQARLKALKEQRLKELAKKPHTSLTTAASPVSTSAGGIMTAPAIDIFSTPSSSNSTSKLPNDLLDLQQPTFHPSVHAMSAAPQGASTWGDPFSATLDAVEDAIPSLNPFLTKSSGDVHLPIASDVSTFTTRTPTHEMFVGFSPSPVAQPHSSAGLNVDFESVFGNKSTNVAVDSGGFDELGGLLKPTVASQNQSLPVAKLPPNKLVSDDLDSSLANLVGNLGIGNGTTKNDVSWSQPGEKKLTGGSNWQPKVAPTTAWSAATMNGMHFPQYAPPVMAYPATTPTGMIGYGIPPQMGSVPVMTQPTLIYSQPVMRPPNPFGPVSGAQIQFM

System: WT MEF EVs
Assay: Quantitative LC-MS/MS proteomics of EVs from ISRIB-treated WT MEF cultures
Type: cell-based, mouse
Set-up: key to ISRIB and DYT Parallel Direction / ISRIB and DYT Parallel Direction, Ctdsp1 / ISRIB and DYT Parallel Direction, Pcdh19 / ISRIB and DYT Parallel Direction, Tspan7 / ISRIB and DYT Parallel Direction, Myo1e / ISRIB and DYT Parallel Direction, Plpp3 / ISRIB and DYT Parallel Direction, Sh3bp4 / ISRIB and DYT Parallel Direction, Dnajc7 / ISRIB and DYT Parallel Direction, Drg1 / ISRIB and DYT Parallel Direction, Maea: YES = protein abundance effect similar to DYT/WT
Settings: EV protein abundance, ISRIB-treated WT vs WT

Molecule	WT + ISRIB/WT Cohen's d
B1	−1.45
B2	−0.44
B3	−1.03
B4	1.37
B5	−1.43
B6	−1.01

Same assay, conditions: EV protein abundance, WT + ISRIB vs WT, direction compared with DYT/WT

Molecule	ISRIB and DYT Parallel Direction
B1	YES
B2	YES
B3	YES
B4	YES
B5	YES
B6	YES

System: DYT-TOR1A MEF EVs
Assay: Quantitative LC-MS/MS proteomics of EVs from drug-treated DYT-TOR1A MEF cultures (ritonavir, salubrinal)
Type: cell-based, mouse
Set-up: key to RTV Corrective Direction / RTV Corrective Direction, Grwd1 / RTV Corrective Direction, Srrm2 / RTV Corrective Direction, Rbm17 / RTV Corrective Direction, Dcaf8 / RTV Corrective Direction, Edil3 / RTV Corrective Direction, Timp3 / RTV Corrective Direction, Heatr3 / RTV Corrective Direction, Brd4 / RTV Corrective Direction, P3h4 / RTV Corrective Direction, Pacsin3 / RTV Corrective Direction, Naa50 / RTV Corrective Direction, Lpar6 / RTV Corrective Direction, Ndrg1 / RTV Corrective Direction, Kntc1 / RTV Corrective Direction, Cdk11b / RTV Corrective Direction, Sumo1 / RTV Corrective Direction, Lsm4 / RTV Corrective Direction, Hmga2 / RTV Corrective Direction, Cstf1 / RTV Corrective Direction, Tes / RTV Corrective Direction, Sbno1 / RTV Corrective Direction, Unc119b / RTV Corrective Direction, Cfdp1 / RTV Corrective Direction, Sec61b: YES = protein abundance effect opposite to DYT/WT
Settings: EV protein abundance, DYT + RTV (ritonavir) vs DYT, direction compared with DYT/WT

Molecule	RTV Corrective Direction
B1	YES
B2	YES
B3	YES
B4	YES
B5	YES
B6	YES

Same assay, conditions: EV protein abundance, ritonavir (RTV)-treated DYT vs DYT

Molecule	DYT + RTV/DYT Cohen's d
B1	2.86
B2	3.05
B3	4.38
B4	−2.80
B5	3.01
B6	2.85
